Reference: the supplement of paper PMC9170038

System: MS2 coat protein
Assay: apparent KD of MS2 coat protein; designed switch direction (-1 OFF switch, 1 ON switch): 1; higher = weaker reporter binding
In short: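 On Illumina chips, designed RNA switches with common flanks were made by stalled E. coli RNA polymerase. Titrations with SNAP-549-labelled MS2 coat protein, doubling from 0.7 or 1.5 nM to 3 µM, were done with no input, with 200 uM small-molecule ligand, or with an oligonucleotide input. Apparent KD is the median per design over clusters, from curve fits of normalised cluster fluorescence.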

[1] = input ligand: microRNA oligo, concentration not stated
[2] = Eterna round: R95, input ligand: microRNA oligo, concentration not stated

Sequence	apparent KD of MS2 coat protein [1] [nM]	apparent KD of MS2 coat protein (input ligand: FMN 200 uM) [nM]	apparent KD of MS2 coat protein (input ligand: none) [nM]	apparent KD of MS2 coat protein [2] [nM]	apparent KD of MS2 coat protein (Eterna round: R95, input ligand: FMN 200 uM) [nM]	apparent KD of MS2 coat protein (Eterna round: R95, input ligand: none) [nM]
GUGGUCAGACAUGAGGAUCACCCAUGUGGAAUAAAUAAGGACAAGGAUAUGGAAUAUAGGAUAUACCAGAAGGUGUGGUUGGUG (Eterna round: R96, puzzle: Same State NG 3)	67.5					
GUGGUCAGACAUGAGGAUCACCCAUGUGGAAUAAAUAAGGAGAAGGAUAUGGAAUAUAGGAUAUACCAGAAGGUUUGGUUGGUG (Eterna round: R96, puzzle: Same State NG 3)	90.5					
GUGGUCAGACAUGAGGAUCACCCAUGUGGAAUAAAUAAGGGACAGGAUAUGGAAUAUAGGAUAUACCAGAAGGGUUGGUUGGUG (Eterna round: R96, puzzle: Same State NG 3)	68.7	86.2	82			
GUGGUCAGACAUGAGGAUCACCCAUGUGGAAUAAAUAAGGGUCAGGAUAUGGAAUAUAGGAUAUACCAGAAGGGAUGGUUGGUG (Eterna round: R96, puzzle: Same State NG 3)	70.2	134	92.8			
GUGGUCUGACAUGAGGAUCACCCAUGUGGAAUAAAUAAGGGUUAGGAUAUCUUGAGGAUCACCCAAGAGAAGGGAUGGUUGGUG (Eterna round: R96, puzzle: Same State NG 3)	90.7	125	124			
GUGGUCUGACAUGAGGAUCACCCAUGUGGAAUAAAUACGGGUUAGGAUAUCUUGAGGAUCACCCAAGAGAAGGGAUCGAUUGUU (Eterna round: R96, puzzle: Same State NG 3)	36.4					
GUGGUGGGUUGAGGAUAUUGGUUGUUGUUGUUUUACAUGAGGAUCACCCAUGUGGGUUGUGGUUUUGAGAAGGUUGGUUGCUGG [salish99_SSNG2_r04_048] (Eterna round: R96, puzzle: Same State NG 2)	194	262	185			
GUGGUGUAGAUACAGGAUAUGUUGCUCGUAACAUGAGGAUCACCCAUGUAUCUAUGAGAUAAAAUGCAGAAGGGUGCACACCACU [Mat - Same State 2 - Mod of UCT - D75] (puzzle: Same State 2)				245		
GUGGUGUAGAUACAGGAUAUGUUGCUCGUAACAUGAGGAUCACCCAUGUAUGUAUGAGAAUGAAUGCAGAAGGGUGCACACCACG [Mat - Same State 2 - Mod of UCT - D77] (puzzle: Same State 2)				106	13.8	159
GUUACAUGAGGAUCACCCAUGUAAGUGUGGGAGAAAGUGACUUAGGAUAUCUAAUAUUUAAAUUAAGAGAAGGAAGAUUGUUGU [JMF's solution 4] (Eterna round: R96, puzzle: Same State NG 3)	64.3	86.8	81.6			
GUUACAUGAGGAUCACCCAUGUAUGUGUGGGAGUAAGUGUCUUAGGAUAUCUAGUAUUUAGUUUAAGAGAAGGAAGAUUGUUGU [JMF's solution 61] (Eterna round: R96, puzzle: Same State NG 3)	90	127	88.2			
GUUACAUGAGGAUCACCCAUGUAUGUGUGGGAGUAAGUGUCUUAGGAUAUCUAUGAGUUAAUUUAAGAGAAGGAAGAUUGUUGU [JMF's solution 74] (Eterna round: R96, puzzle: Same State NG 3)	63.4	97.2	77.5			
GUUACAUGAGGAUCACCCAUGUAUGUGUGGGAGUAAGUGUCUUAGGAUAUCUAUGAUUUAAUUUCAGAGAAGGAAGAUUGUUGU [JMF's solution 88] (Eterna round: R96, puzzle: Same State NG 3)	68	119	109			
GUUACAUGAGGAUCACCCAUGUAUGUGUGGGAGUAAGUGUCUUAGGAUAUCUGUUAUUUAAUUUGAGAGAAGGAAGAUUGUUGU [JMF's solution 47] (Eterna round: R96, puzzle: Same State NG 3)	71.7	134	89.1			
GUUACAUGAGGAUCACCCAUGUAUGUGUGGGAGUAAGUGUCUUAGGAUAUCUGUUAUUUGAUUUAAGAGAAGGAAGAUUGUUGU [JMF's solution 40] (Eterna round: R96, puzzle: Same State NG 3)	78.4	123	92.8			
